In patent publication US20120301469A1 (Ablynx, published 2012):

Tests used:
[1] = target: T1, hRSV FTM-NN (membrane anchorless form of the Long fusion protein, 70 kDa) (human respiratory syncytial virus, …, UniProt P12568 26-524); test: ELISA on immobilized FTM-NN, periplasmic extract 1:10
T1 construct: also called FTM-NN (Long); hRSV FTM-protein

[2] = target: T2, protein F of hRSV strain Long, on virus (inactivated hRSV Long, Hytest #8RSV79; RSV Long LM-2, ATCC VR-26) (human respiratory syncytial virus, …, UniProt P12568 26-574); test: cell-based or functional assay
[3] = target: T3, protein F of hRSV strain B-1 (on RSV B-1-infected Hep2 cells and on virus) (human respiratory syncytial virus, …, UniProt P13843 26-574); test: cell-based or functional assay
[4] = target: T1, hRSV FTM-NN (membrane anchorless form …); test: competition ELISA on FTM-NN, competitor Synagis Mab, purified Nanobody
[5] = target: T3, protein F of hRSV strain B-1 (on RSV …); test: cell ELISA on RSV B-1-infected Hep2 cells, periplasmic extract 1:200
[6] = target: T3, protein F of hRSV strain B-1 (on RSV …); test: cell ELISA on RSV B-1-infected Hep2 cells, periplasmic extract 1:50
[7] = target: T2, protein F of hRSV strain Long, on virus …; test: cell-based or functional assay; remark: listed apart in the source
[8] = target: T3, protein F of hRSV strain B-1 (on RSV …); test: cell-based or functional assay; remark: listed apart in the source
[9] = target: T1, hRSV FTM-NN (membrane anchorless form …); test: SPR (Biacore), FTM-NN amine-coupled on CM5 chip, 1:1 Langmuir fit

B1: Nanobody 7B2 (VHH)
VHH: EVQLVESGGGLVQAGDSLRLSCAASGRTFSSYAMGWFRQAPGKEREFVAAISWSDGSTYYADSVKGRFTISRDNAKNTVYLQMNSLKPEDTAVYYCAADLTSTNPGSYIYIWAYDYWGQGTQVTVSS
notes: also called PMP7B2; PRSV7B2
Binding Long 1:10 PE (Fold blanc) [1]: 4.7 fold blanc
RSV micro-neutralization on Long, IC50 [2]: 88 nM
micro-neutralization of RSV B-1 [3]: > 10 µM
IC50 [4]: 1.93 nM
Binding Hep2-B-1 (% control) 1:200 PE [5]: 41 % control
Binding Hep2-B-1 (% control) 1:50 PE [6]: 61 % control
Neutralization Long IC50 [7]: 108 nM
Neutralization B-1 IC50 [8]: > 10000 nM
Kd [9]: 1.5 nM
koff [9]: 0.00049 s⁻¹
kon [9]: 340000 M⁻¹ s⁻¹

B2: Nanobody NC41 (VHH)
VHH: EVQLVESGGGLVQAGGSLSISCAASGGSLSNYVLGWFRQAPGKEREFVAAINWRGDITIGPPNVEGRFTISRDNAKNTGYLQMNSLAPDDTAVYYCGAGTPLNPGAYIYDWSYDYWGRGTQVTVSS
micro-neutralization of RSV B-1 [3]: > 10 µM
IC50 [4]: 416 nM
Neutralization Long IC50 [7]: 221 nM
Kd [9]: 8.1 nM
koff [9]: 0.0067 s⁻¹
kon [9]: 820000 M⁻¹ s⁻¹

B3: Nanobody 19C4 (VHH)
VHH: EVQLVESGGGLVQAGGSLRLSCAASGRSFSNYVLGWFRQAPGKEREFVAAISFRGDSAIGAPSVEGRFTISRDNAKNTGYLQMNSLVPDDTAVYYCGAGTPLNPGAYIYDWSYDYWGRGTQVTVSS
notes: also called PMP19C4; PRSV19C4
Binding Long 1:10 PE (Fold blanc) [1]: 2.5 fold blanc
micro-neutralization of RSV B-1 [3]: > 10 µM
IC50 [4]: 209 nM
Binding Hep2-B-1 (% control) 1:200 PE [5]: 50 % control
Binding Hep2-B-1 (% control) 1:50 PE [6]: 72 % control
Neutralization Long IC50 [7]: 332 nM
Neutralization B-1 IC50 [8]: > 10000 nM

B4: Nanobody 1G3 (VHH)
VHH: EVQLVESGGGLVQAGGSLRLSCEASGRTYSRYGMGWFRQAPGKEREFVAAVSRLSGPRTVYADSVKGRFTISRDNAENTVYLQMNSLKPEDTAVYTCAAELTNRNSGAYYYAWAYDYWGQGTQVTVSS
notes: also called PMP1G3; PRSV1G3
Binding Long 1:10 PE (Fold blanc) [1]: 3.4 fold blanc
micro-neutralization of RSV B-1 [3]: > 10 µM
IC50 [4]: 72.5 nM
Binding Hep2-B-1 (% control) 1:200 PE [5]: 45 % control
Binding Hep2-B-1 (% control) 1:50 PE [6]: 52 % control
Neutralization Long IC50 [7]: 413 nM
Neutralization B-1 IC50 [8]: > 10000 nM
